Test results taken from US11529390B2, “PCSK9 inhibitory polypolypeptides and methods of use” (INSTITUT DE CARDIOLOGIE DE MONTREAL, priority 2015, dated 2022).
Read-outs that look alike come from different tables or passages of the source.

B1: SEQ ID. NO. 7: polypeptide of the invention; in b217 apparently the truncated CBD-CT form of GRP94 (protein)
chain: MRALWVLGLCCVLLTFGSVRAYGWSGNMERIMKAQAYQTGKDISTNYYASQKKTFEINPRHPLIRDMLRRIKEDEDDKTVLDLAVVLFETATLRSGYLLPDTKAYGDRIERMLRLSLNIDPDAKVEEEPEEEPEETAEDTTEDTEQDEDEEMDVGTDEEEETAKESTAE
B2: SEQ ID. NO. 46: secretable HA-tagged GRP94 signal polypeptide, client-binding domain and C-terminal domain lacking KDEL (CBD-CT) (protein)
chain: MRALWVLGLCCVLLTFGSVRAYGWSGNMERIMKAQAYQTGKDISTNYYASQKKTFEINPRHPLIRDMLRRIKEDEDDKTVLDLAVVLFETATLRSGYLLPDTKAYGDRIERMLRLSLNIDPDAKVEEEPEEEPEETAEDTTEDTEQDEDEEMDVGTDEEEETAKESTAEYPYDVPDYA
B3: SEQ ID. NO. 65: alanine-scanning mutant of GRP94-ΔKDEL, CBD region YGWSGNMERIMKAQAYATGKAISTNAA (SEQ ID. NO. 79) (protein, listed as Homo Sapiens)
chain: MRALWVLGLCCVLLTFGSVRADDEVDVDGTVEEDLGKSREGSRTDDEVVQREEEAIQLDGLNASQIRELREKSEKFAFQAEVNRMMKLIINSLYKNKEIFLRELISNASDALDKIRLISLTDENALSGNEELTVKIKCDKEKNLLHVTDTGVGMTREELVKNLGTIAKSGTSEFLNKMTEAQEDGQSTSELIGQFGVGFYSAFLVADKVIVTSKHNNDTQHIWESDSNEFSVIADPRGNTLGRGTTITLVLKEEASDYLELDTIKNLVKKYSQFINFPIYVWSSKTETVEEPMEEEEAAKEEKEESDDEAAVEEEEEEKKPKTKKVEKTVWDWELMNDIKPIWQRPSKEVEEDEYKAFYKSFSKESDDPMAYIHFTAEGEVTFKSILFVPTSAPRGLFDEYGSKKSDYIKLYVRRVFITDDFHDMMPKYLNFVKGVVDSDDLPLNVSRETLQQHKLLKVIRKKLVRKTLDMIKKIADDKYNDTFWKEFGTNIKLGVIEDHSNRTRLAKLLRFQSSHHPTDITSLDQYVERMKEKQDKIYFMAGSSRKEAESSPFVERLLKKGYEVIYLTEPVDEYCIQALPEFDGKRFQNVAKEGVKFDESEKTKESREAVEKEFEPLLNWMKDKALKDKIEKAVVSQRLTESPCALVASQYGWSGNMERIMKAQAYATGKAISTNAAASQKKTFEINPRHPLIRDMLRRIKEDEDDKTVLDLAVVLFETATLRSGYLLPDTKAYGDRIERMLRLSLNIDPDAKVEEEPEEEPEETAEDTTEDTEQDEDEEMDVGTDEEEETAKESTAEYPYDVPDYA
B4: SEQ ID. NO. 64: alanine-scanning mutant of GRP94-ΔKDEL, CBD region YAASAAAAAIMKAQAYQTGKDISTNYY (SEQ ID. NO. 78) (protein, listed as Homo Sapiens)
chain: MRALWVLGLCCVLLTFGSVRADDEVDVDGTVEEDLGKSREGSRTDDEVVQREEEAIQLDGLNASQIRELREKSEKFAFQAEVNRMMKLIINSLYKNKEIFLRELISNASDALDKIRLISLTDENALSGNEELTVKIKCDKEKNLLHVTDTGVGMTREELVKNLGTIAKSGTSEFLNKMTEAQEDGQSTSELIGQFGVGFYSAFLVADKVIVTSKHNNDTQHIWESDSNEFSVIADPRGNTLGRGTTITLVLKEEASDYLELDTIKNLVKKYSQFINFPIYVWSSKTETVEEPMEEEEAAKEEKEESDDEAAVEEEEEEKKPKTKKVEKTVWDWELMNDIKPIWQRPSKEVEEDEYKAFYKSFSKESDDPMAYIHFTAEGEVTFKSILFVPTSAPRGLFDEYGSKKSDYIKLYVRRVFITDDFHDMMPKYLNFVKGVVDSDDLPLNVSRETLQQHKLLKVIRKKLVRKTLDMIKKIADDKYNDTFWKEFGTNIKLGVIEDHSNRTRLAKLLRFQSSHHPTDITSLDQYVERMKEKQDKIYFMAGSSRKEAESSPFVERLLKKGYEVIYLTEPVDEYCIQALPEFDGKRFQNVAKEGVKFDESEKTKESREAVEKEFEPLLNWMKDKALKDKIEKAVVSQRLTESPCALVASQYAASAAAAAIMKAQAYQTGKDISTNYYASQKKTFEINPRHPLIRDMLRRIKEDEDDKTVLDLAVVLFETATLRSGYLLPDTKAYGDRIERMLRLSLNIDPDAKVEEEPEEEPEETAEDTTEDTEQDEDEEMDVGTDEEEETAKESTAEYPYDVPDYA

Columns and labels:
[1] = target: T1, PCSK9-V5 (Homo sapiens, UniProt Q8NBP7); test: Co-immunoprecipitation of GRP94 constructs with PCSK9-V5 in transfected HEK293 cells; assay type: binding
T1 construct: Full-length human V5-tagged PCSK9 and LDLR were subcloned into pIRES2-EGFP; expressed in transfected cells; host or cells: HEK293
Method: FIG. 2: Mapping of the PCSK9-GRP94 interacting domain. (a-b) HEK293 cells were transfected without (−) or with (+) PCSK9-V5 or SEQ ID NO. 66, 64 or 65. A PCSK9 V5 epitope-tag fusion protein (PCSK9-V5) was immune-precipitated from cell lysates using mAb-V5 antibody (IP: V5) and immune-blotted as indicated. Total GRP94 (SEQ. ID. NO. 3) and PCSK9 (SEQ. ID. NO. 1) protein levels were analyzed by immune-blotting in cell lysates (input) and conditioned media. (c) Left panel; HEK293 cells were transfected without (−) or with (+) PCSK9-V5, SEQ. ID. NO. 66 or 46. PCSK9-V5 was immune-precipitated for cell lysates (IP: V5) and immune-blotted (IB) as indicated. Total GRP94 and PCSK9 protein levels were also analyzed by immune-blotting and herein used as a control (input). Right panel; GRP94 homodimer (gray and yellow) crystal structure was determined from PDB file #2O1V using MacPymol software. […] 6 in which critical residues for PCSK9 binding determined in (b) are indicated in blue for SEQ. ID. NO. 64 and red for SEQ. ID. NO. 65. Data are representative of at least three independent experiments.
For identification of novel PCSK9 interactors, HepG2 or Huh-7 cells (55 cm2) were washed three times in phosphate-buffered saline (PBS) and incubated with 1 mM dithiobis[succinimidylpropionate] (DSP; Cat. #22585, Thermo Scientific), a thiol-cleavable cross-linking reagent, for 30 min at room temperature and subsequently switch for 15 min into a stop solution (15 mM Tris, pH 7.5). Cells were then lysed in complete radio-immune precipitation assay (RIPA) buffer (50 mM Tris/HCl, pH 8.0, 1% (v/v) Nonidet P40, 0.5% sodium deoxycholate, 150 mM NaCl and 0.1% (v/v) sodium dodecyl sulfate (SDS)) supplemented with a complete protease inhibitor mixture (Cat. #11 697 498 001, Roche Applied Science), passed 25 times through a 22-gauge needle and centrifuged at 11,000 g for 15 min at 4° C. Supernatants were incubated and rotated overnight with pre-immune serum, rabbit anti-hPCSK9 (amino acids 31-454) (1:250; Dr. Nabil Seidah, Clinical Research Institute of Montreal) or mouse anti-V5-tag (1:500; Cat. #R96025, Life Technologies) together with 50 μl protein A/G PLUS-agarose (Cat. #sc-2003, Santa Cruz). Following overnight incubation, beads were washed six times in RIPA buffer and resuspended in 75 μl Laemmli sample buffer. Co-immunoprecipitated (Co-IP) proteins were separated by 8% SDS-polyacrylamide gel electrophoresis and visualized using the Pierce silver stain kit (Cat. #24600, Thermo Scientific) according the manufacturer's instructions. All other Co-IP experiments were performed as described without the cross-linking step and in SDS-deprived RIPA buffer. HA-tagged proteins and GRP94 were immunoprecipitated with mouse anti-HA-tag (1:500; Cat. #H3663, Sigma-Aldrich) or rat anti-Grp94 (9G10, 1:1000; Cat. #ADI-SPA-850, Enzo Life Sciences).
We next decided to map GRP94 domain(s) important for PCSK9 protein-protein interaction. The overall domain structure of GRP94 includes a signal polypeptide (amino acids; aa1-21) followed by a N-terminal enzymatic ATP-binding domain (aa22-651), client-binding domain (CBD; aa652-678), C-terminal dimerization domain (aa679-799) and a KDEL polypeptide sequence (aa800-803) allowing retention of GRP94 in the endoplasmic reticulum. (Dollins et al., 2007; Maki et al., 1990; Wu et al., 2012) Thus, we first generated cDNA constructs encoding secretable HA-tagged forms of human GRP94 lacking its C-terminal KDEL polypeptide (SEQ ID. NO. 66; FIG. 2). HEK293 cells were transfected without or with SEQ ID. NO. 66 in absence or presence of PCSK9-V5 (FIG. 2a). […] NO. 66 is well expressed (Input; IB: HA) and secreted into media and that SEQ ID. NO. […] It was reported that a 27 aa C-terminal hydrophobic loop structure within GRP94 client-binding domain (CBD, amino acids aa652-678; ^652[…], SEQ ID. NO. 4) was important for folding and interaction with Toll-like receptors and integrins. (Wu et al., 2012) Deletion or alanine-scan mutations in SEQ ID. […]

[2] = tested on: LDLR degradation induced by overexpression of PCSK9; test: LDLR degradation after co-expression with PCSK9-V5 (intracellular pathway), immunoblot; assay type: cell-based, human
Method: FIG. 7: SEQ ID NO. 6 prevents PCSK9-induced LDLR degradation. (a) Left; Coomassie staining of purified recombinant SEQ ID NO. 6 and PCSK9 separated by SDS-PAGE is shown. Right; HepG2 cells were incubated in DMEM without or with 0, 25, 100 or 250 nM SEQ ID NO. 6 alone or in presence of recombinant PCSK9. (b) HepG2 cells were transfected without (−) or with PCSK9-V5 in absence (−) or presence SEQ ID NO. 66 or SEQ ID NO. 46. Total LDLR, PCSK9, SEQ ID NO. 66, SEQ ID NO. 46 and β-actin protein levels were analyzed by immunoblotting in cell lysates and conditioned media as indicated. Data are representative of at least three independent experiments.
We next tested whether SEQ ID. NO. 6 could alter the capacity of PCSK9 to induce LDLR degradation. HepG2 cells were incubated overnight with an increasing amount of recombinant SEQ ID. NO. 6 in absence or presence of exogenous PCSK9 (FIG. 7a). […] NO. […] Although that SEQ ID. NO. […] NO. […] (Poirier et al., 2009) As PCSK9 was also shown to induce LDLR degradation via an intracellular pathway, (Poirier et al., 2009) we evaluated to ability of SEQ ID. NO. 66 or SEQ ID. NO. 46 to neutralize PCSK9 in HepG2 cells following co-expression (FIG. 7b). Similar to the extracellular pathway (FIGS. 5b and 7a), both SEQ ID. NO. 66 and SEQ ID. NO. […] NO. 66 and specifically SEQ ID. NO. […]

T1 sequence (Q8NBP7 153-692): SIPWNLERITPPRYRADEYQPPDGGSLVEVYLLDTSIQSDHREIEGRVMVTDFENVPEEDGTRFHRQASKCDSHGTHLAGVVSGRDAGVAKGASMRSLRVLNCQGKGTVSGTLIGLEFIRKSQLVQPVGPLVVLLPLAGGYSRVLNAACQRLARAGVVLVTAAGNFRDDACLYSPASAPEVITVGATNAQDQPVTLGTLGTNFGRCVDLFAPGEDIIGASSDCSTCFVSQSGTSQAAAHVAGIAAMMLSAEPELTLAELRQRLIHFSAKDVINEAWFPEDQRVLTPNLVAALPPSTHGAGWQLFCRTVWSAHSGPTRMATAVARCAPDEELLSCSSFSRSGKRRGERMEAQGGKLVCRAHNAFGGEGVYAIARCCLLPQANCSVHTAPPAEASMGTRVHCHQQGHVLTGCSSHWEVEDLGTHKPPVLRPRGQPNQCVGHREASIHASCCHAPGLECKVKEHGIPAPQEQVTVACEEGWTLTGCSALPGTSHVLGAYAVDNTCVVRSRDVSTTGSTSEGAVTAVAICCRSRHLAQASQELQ

Molecule | Interaction (binding) with PCSK9 by co-immunoprecipitation [1] | Block of LDLR degradation induced by overexpression of PCSK9 [2] | Interaction (binding) with PCSK9 by co-immunoprecipitation ([1]; listed as AA2) | Interaction (binding) with PCSK9 by co-immunoprecipitation ([1]; listed as AA1)
B1 | significantly enhanced |  |  | 
B2 |  | significantly block |  | 
B3 | abrogate binding to PCSK9 |  | abolished PCSK9 binding | 
B4 | abrogate binding to PCSK9 |  |  | abolished PCSK9 binding
